The record followed here is patent US7799901B2, “Modulators of the function of FAS receptors and other proteins” (Yeda Research and Development Co. Ltd., priority 1995, dated 2010).

Experiment [1] has as its target CED3/ICE homology region in MACHα1 (Homo sapiens, UniProt Q14790). Conditions: 5 mM; bacterial extracts; listed as iodacetic acid.
The target of experiment [2] is T1, intracellular domain of FAS-R (Homo sapiens, UniProt P25445).
T1 construct: expressed in transfected cells; host or cells: HeLa HtTA-1
T1 sequence (P25445 26-335): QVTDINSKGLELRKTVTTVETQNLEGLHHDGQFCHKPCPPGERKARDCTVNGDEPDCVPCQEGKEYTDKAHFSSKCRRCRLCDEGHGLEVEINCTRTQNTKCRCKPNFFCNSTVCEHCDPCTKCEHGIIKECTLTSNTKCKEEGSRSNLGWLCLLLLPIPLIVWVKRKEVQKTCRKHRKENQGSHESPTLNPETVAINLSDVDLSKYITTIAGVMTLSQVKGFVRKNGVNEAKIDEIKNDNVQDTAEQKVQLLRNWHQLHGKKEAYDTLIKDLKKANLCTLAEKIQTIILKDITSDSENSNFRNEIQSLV
In words: Cross immunoprecipitation with co-expressed FAS-R in HeLa cells. In kind it is binding. As for the experimental part: (§1) MORT-1, N-linked to the FLAG octapeptide, (FLAG-MORT-1; Eastman Kodak, New Haven, Conn., USA), Fas-IC, FAS-R, p55-R, a chimera comprised of the extracellular domain of p55-R (amino acids 1-168) fused to the transmembrane and intracellular domain of FAS-R (amino acids 153-319), and the luciferase cDNA which serves as a control, were expressed in HeLa cells. Expression was carried out using a tetracycline-controlled expression vector, in a HeLa cell clone (HtTA-1) that expresses a tetracycline-controlled transactivator (Gossen and Bujard, 1992; see also Boldin et al, 1995). Metabolic labeling with [^35S]methionine and [^35S] cysteine (DUPONT, Wilmington, Del., USA and Amersham, Buckinghamshire, England) was performed 18 hours after transfection, by a further 4 h incubation at 37° C. in Dulbecco's modified Eagle's medium lacking methionine and cysteine, but supplemented with 2% dialyzed fetal calf serum. The cells were then lysed in RIPA buffer (10 mM Tris-HCl, pH 7.5, 150 mM NaCl, 1 NP-40, 1% deoxycholate, 0.1% SDS and 1 mM EDTA) and the lysate was precleared by incubation with irrelevant rabbit antiserum (3 μl/ml) and Protein G Sepharose beads (Pharmacia, Uppsala, Sweden; 60 μl/ml). […]

The target in experiment [3] is T2, FAS-R-p55-R chimera (p55-FAS) (Homo sapiens, UniProt P19438+P25445).
T2 construct: transmembrane and intracellular domain of FAS-R (amino acids 153-319); expressed in transfected cells; host or cells: HeLa HtTA-1
T2 sequence (P19438+P25445 with tags, fused parts or gaps): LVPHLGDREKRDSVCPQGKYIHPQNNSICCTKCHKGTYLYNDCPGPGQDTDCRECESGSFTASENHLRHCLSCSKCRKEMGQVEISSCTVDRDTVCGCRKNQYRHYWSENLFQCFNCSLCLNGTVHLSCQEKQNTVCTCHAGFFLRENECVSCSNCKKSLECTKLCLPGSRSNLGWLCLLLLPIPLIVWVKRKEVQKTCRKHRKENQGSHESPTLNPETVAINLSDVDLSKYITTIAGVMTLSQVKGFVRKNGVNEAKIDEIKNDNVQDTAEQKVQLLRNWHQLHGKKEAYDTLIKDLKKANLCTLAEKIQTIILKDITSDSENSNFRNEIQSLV
In words: Cross immunoprecipitation with co-expressed p55-FAS chimera in HeLa cells. In kind it is binding. How it is done:
as §1

The subject of experiment [4] is GST-Fas-IC fusion protein. In words: In vitro binding to GST-Fas-IC on glutathione beads. Also noted: species or system human or mouse. Conditions: [35S]-labeled protein from HeLa extracts; SDS-PAGE, autoradiography. As for the experimental part: Glutathione S-transferase (GST) fusions with the wild type or a mutated Fas-IC were produced and adsorbed to glutathione-agarose beads; see Boldin et al, 1995; Ausubel et al, 1994; Frangioni and Neel, 1993). Binding of metabolically-labeled FLAG-MORT-1 fusion protein to GST-Fas-IC was assessed by incubating the beads for 2 h at 4° C. with extracts of HeLa cells, metabolically labeled with [^35S]methionine (60 μCi/ml), that express FLAG-MORT-1. The extracts were prepared in a buffer containing 50 mM Tris-HCl, pH 7.5, 150 mM NaCl, 0.1% NP-40; 1 mM dithioteitol, 1 mM EDTA, 1 mM phenylmethylsulfonyl fluoride, 20 μg/ml Aprotonin, […] Leupeptin, 10 mM-sodium fluoride and 0.1 mM sodium vanadate (1 ml per 5×10^5 cells).
Expression of MORT-1 molecules fused at their N terminus with the. FLAG octapeptide (FLAG-MORT-1) yielded in HeLa cells proteins of four distinct sizes—about […], 28, 32, and 34 kD. […] Thus, the in vitro interaction was evaluated by assessing, by autoradiography following SDS-PAGE, the binding of [35] metabolically labeled MORT-1, produced in transfected HeLa cells as a fusion with the FLAG octapeptide (FLAG-MORT-1), to GST, GST fusion with the human or mouse Fas-IC (GST-huFas-IC, GST-mFas-IC) or to GST fusion with Fas-IC containing a Ile to Ala replacement mutation at position 225.

Sequence of CED3/ICE homology region in MACHα1 (Q14790 217-479): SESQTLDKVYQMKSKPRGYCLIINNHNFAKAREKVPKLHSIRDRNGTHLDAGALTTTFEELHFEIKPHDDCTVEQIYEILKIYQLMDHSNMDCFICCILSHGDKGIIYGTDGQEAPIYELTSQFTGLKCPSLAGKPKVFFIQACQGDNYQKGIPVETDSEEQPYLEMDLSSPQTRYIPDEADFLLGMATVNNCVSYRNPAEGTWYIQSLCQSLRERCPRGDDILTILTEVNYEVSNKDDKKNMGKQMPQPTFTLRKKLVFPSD

For `O=C(O)CI` [iodoacetic acid], the “effect on cleavage of Ac-DEVD-AMC by the MACHα1 CED3/ICE homology region” value in experiment [1] is listed as “blocked”.

B1: FLAG-MORT-1: MORT-1, N-linked to the FLAG octapeptide (protein)
chain: VNQAPECRFGGGILGPLGKRRDLARASEPRTEGARRAGPQPRPLADPAMDPFLVLLHSVSSSLSSSELTELKFLCLGRVVKRKLERVQSGLDLFSMLLEQNDLEPGHTELLRELLASLRRHDLLRRVDDFEAGAAAGAAPGEEDLCAAFNVICDNVGKDWRRLARQLKVSDTKIDSIEDRYPRNLTERVRESLRIWKNTEKENATVAHLVGALRSCQMNLVADLVQEVQQARDLQNRSGAMSPMSWNSDASTSEAS
modifications: left off: small tags and cut ends
notes: MORT-1, N-linked to the FLAG octapeptide
As for B1, the “binding to intracellular domain of FAS-R when co-expressed in HeLa cells” value in experiment [2] is recorded as “capable of binding”. The “binding to intracellular domain of FAS-R-p55-R chimera when co-expressed in HeLa cells” value in experiment [3] is “capable of binding”. In addition, the “in vitro binding to GST-Fas-IC” value in experiment [4] is “showed ability to bind”.
